{"source": "patent US20130231277A1", "about": "(NEW YORK UNIVERSITY, published 2013)", "key": {"[1]": {"target": "T1, ectodomain of murine αKlotho (A35 to K982 of SEQ ID NO: 231) with a C-terminal FLAG tag (murine, UniProt O35082 35-982)", "T1 construct": "Purified from culture media of a HEK293 cell line; also called αKlotho ectodomain; not shown: C-terminal FLAG tag", "T1 sequence": "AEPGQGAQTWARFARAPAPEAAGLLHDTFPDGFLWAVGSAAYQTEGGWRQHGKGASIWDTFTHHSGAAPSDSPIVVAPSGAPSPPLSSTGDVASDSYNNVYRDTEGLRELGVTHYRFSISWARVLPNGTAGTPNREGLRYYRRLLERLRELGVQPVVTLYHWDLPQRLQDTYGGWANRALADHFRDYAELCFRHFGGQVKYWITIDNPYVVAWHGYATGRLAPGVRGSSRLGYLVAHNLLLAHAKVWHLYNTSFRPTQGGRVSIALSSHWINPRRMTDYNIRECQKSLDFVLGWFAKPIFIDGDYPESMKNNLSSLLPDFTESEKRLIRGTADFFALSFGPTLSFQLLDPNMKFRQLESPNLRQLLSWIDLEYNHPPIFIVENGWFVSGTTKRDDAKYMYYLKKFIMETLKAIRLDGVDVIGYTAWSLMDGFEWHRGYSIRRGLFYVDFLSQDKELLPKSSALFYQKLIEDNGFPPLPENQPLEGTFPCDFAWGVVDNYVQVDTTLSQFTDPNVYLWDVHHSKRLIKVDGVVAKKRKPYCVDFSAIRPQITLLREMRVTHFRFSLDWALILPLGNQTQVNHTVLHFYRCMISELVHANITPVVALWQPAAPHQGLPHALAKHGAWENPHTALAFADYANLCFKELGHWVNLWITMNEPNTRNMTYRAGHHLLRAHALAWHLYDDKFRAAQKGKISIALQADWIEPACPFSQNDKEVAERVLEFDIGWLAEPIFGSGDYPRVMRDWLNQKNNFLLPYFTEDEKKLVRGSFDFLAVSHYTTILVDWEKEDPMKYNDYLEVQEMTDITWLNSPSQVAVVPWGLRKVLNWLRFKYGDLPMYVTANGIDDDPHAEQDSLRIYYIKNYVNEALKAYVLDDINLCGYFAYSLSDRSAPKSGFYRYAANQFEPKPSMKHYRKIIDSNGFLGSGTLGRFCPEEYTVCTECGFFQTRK", "assay": "SPR; FGF21 immobilized, increasing concentrations of αKlotho ectodomain passed over the chip (FIG. 4E)", "procedure": "SPR experiments were performed on a Biacore 2000 instrument (Biacore AB), and all the protein-protein and protein-peptide interactions were studied at 25° C. in HBS-EP buffer (10 mM HEPES-NaOH, pH 7.4, 150 mM NaCl, 3 mM EDTA, 0.005% (v/v) polysorbate 20). Proteins were immobilized by amine coupling on flow channels of research grade CM5 chips (Biacore AB). Proteins were injected over a CM5 chip at a flow rate of 50 μl min⁻¹, and at the end of each protein injection (180 s), HBS-EP buffer (50 μl min⁻¹) was flowed over the chip to monitor dissociation for 180 s. In experiments where βKlotho binding to FGFR was analyzed, the chip surface was then regenerated by injecting 50 μl of 2.0 M NaCl in 10 mM sodium/potassium phosphate, pH 6.5. In experiments where α/βKlotho binding to FGF19/21/23 or binding of the FGFR1c-βKlotho complex to FGF21 was studied, 2.0 M NaCl in 10 mM sodium acetate, pH 4.5 was used for chip regeneration. To control for nonspecific binding in experiments where the ectodomain of αKlotho or βKlotho was immobilized on the chip, β-glucuronidase was coupled to the control flow channel of the chip (˜43-68 fmol/mm²). […] For each protein injection over a chip onto which αKlotho or βKlotho had been immobilized, the nonspecific responses from the β-glucuronidase control flow channel were subtracted from the responses recorded for the α/βKlotho flow channel."}, "[2]": {"target": "FGFR1c endogenously expressed by HEK293 cells transiently transfected with murine βKlotho (UniProt P11362 22-822)", "sequence (P11362 22-822)": "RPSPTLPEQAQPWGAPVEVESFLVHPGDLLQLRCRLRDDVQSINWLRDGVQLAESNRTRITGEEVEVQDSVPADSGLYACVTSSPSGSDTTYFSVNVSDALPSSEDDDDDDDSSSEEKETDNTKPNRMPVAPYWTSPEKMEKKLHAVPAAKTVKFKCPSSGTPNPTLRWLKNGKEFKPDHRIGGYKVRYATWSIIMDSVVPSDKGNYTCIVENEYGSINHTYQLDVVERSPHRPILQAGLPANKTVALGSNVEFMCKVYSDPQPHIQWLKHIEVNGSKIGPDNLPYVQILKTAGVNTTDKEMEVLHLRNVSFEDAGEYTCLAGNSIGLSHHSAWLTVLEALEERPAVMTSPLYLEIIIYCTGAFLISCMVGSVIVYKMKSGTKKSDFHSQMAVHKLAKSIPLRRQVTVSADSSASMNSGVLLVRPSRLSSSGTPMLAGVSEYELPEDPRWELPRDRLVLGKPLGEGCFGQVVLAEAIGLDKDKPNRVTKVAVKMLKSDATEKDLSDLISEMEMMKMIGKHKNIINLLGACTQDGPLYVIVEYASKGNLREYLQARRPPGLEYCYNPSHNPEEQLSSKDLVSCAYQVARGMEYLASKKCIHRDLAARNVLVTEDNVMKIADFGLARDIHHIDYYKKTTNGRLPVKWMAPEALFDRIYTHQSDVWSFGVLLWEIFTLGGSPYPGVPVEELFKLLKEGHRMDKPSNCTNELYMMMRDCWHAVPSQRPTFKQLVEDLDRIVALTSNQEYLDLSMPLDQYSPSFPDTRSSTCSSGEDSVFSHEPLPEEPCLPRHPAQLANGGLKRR", "assay": "cell-based or functional assay"}, "[3]": {"target": "T2, 1:1 complex of FGFR1c ligand-binding domain and αKlotho ectodomain (human; murine, UniProt P11362 142-365; O35082 35-982)", "T2 construct": "also called FGFR1c-αKlotho complex; binary FGFR1c-αKlotho complex; not shown: C-terminal FLAG tag", "T2 sequence 1": "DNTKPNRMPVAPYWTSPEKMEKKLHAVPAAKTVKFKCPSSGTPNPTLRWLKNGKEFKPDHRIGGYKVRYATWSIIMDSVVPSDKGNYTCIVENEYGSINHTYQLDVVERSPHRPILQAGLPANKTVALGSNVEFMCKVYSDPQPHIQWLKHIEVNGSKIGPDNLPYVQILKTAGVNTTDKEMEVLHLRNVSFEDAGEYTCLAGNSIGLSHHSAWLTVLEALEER", "T2 sequence 2": "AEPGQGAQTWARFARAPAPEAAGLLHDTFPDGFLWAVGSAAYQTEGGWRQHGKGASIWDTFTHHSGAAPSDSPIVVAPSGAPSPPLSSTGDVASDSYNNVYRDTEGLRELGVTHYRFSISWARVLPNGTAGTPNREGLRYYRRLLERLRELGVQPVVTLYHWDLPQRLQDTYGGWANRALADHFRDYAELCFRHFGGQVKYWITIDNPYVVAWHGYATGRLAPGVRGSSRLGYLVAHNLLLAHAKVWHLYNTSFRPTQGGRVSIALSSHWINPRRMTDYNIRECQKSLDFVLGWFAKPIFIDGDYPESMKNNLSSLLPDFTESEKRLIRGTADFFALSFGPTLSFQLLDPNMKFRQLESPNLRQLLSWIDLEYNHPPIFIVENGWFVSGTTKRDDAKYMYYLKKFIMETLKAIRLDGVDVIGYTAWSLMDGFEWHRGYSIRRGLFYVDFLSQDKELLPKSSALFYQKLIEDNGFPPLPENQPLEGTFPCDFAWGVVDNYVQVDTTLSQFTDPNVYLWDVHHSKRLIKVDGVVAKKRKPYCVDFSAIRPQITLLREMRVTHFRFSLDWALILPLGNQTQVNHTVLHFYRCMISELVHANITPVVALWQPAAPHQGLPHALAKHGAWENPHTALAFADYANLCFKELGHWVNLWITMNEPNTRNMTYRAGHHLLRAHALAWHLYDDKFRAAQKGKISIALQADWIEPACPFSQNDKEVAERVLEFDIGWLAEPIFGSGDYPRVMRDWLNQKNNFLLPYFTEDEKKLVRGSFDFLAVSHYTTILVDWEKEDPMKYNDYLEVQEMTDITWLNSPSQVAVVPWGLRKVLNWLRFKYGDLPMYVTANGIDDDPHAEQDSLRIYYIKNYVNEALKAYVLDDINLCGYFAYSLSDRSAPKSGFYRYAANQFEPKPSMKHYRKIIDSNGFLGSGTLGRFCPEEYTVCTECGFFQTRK", "assay": "SPR; FGF21 immobilized, 1:1 FGFR1c-αKlotho complex passed over the chip (FIG. 1D)"}}}
{"binder": "human FGF21, secreted bioactive form (H29 to S209 of SEQ ID NO: 100) (ligand, Used both immobilized on the SPR chip and in solution; also called wild-type FGF21; native FGF21) HPIPDSSPLLQFGGQVRQRYLYTDDAQQTEAHLEIREDGTVGGAADQSPESLLQLKALKPGVIQILGVKTSRFLCQRPDGALYGSLHFDPEACSFRELLLEDGYNVYQSEAHGLPLHLPGNKSPHRDPAPRGPARFLPLPGLPPALPEPPGILAPQPPDVGSSDPLSMVGPSQGRSPSYAS", "values": [{"measurement": "binding result", "setting": "[1]", "result": "no binding"}, {"measurement": "Induction of Egr1 protein expression (immunoblot, HEK293 cells co-expressing FGFR1c and βKlotho)", "setting": "[2]", "result": "> 3 fold greater concentration than the 30 ng ml^-1 of the Q104M mutant"}, {"measurement": "binding result", "setting": "[3]", "result": "no binding"}]}
